# Laboratory results: doi:10.1101/2021.05.04.442675
# Target: FLAG-tagged MIWI piRISC made in BmN4 cells (mouse) (UniProt Q9JMB7)
# Sequence (Q9JMB7 whole entry): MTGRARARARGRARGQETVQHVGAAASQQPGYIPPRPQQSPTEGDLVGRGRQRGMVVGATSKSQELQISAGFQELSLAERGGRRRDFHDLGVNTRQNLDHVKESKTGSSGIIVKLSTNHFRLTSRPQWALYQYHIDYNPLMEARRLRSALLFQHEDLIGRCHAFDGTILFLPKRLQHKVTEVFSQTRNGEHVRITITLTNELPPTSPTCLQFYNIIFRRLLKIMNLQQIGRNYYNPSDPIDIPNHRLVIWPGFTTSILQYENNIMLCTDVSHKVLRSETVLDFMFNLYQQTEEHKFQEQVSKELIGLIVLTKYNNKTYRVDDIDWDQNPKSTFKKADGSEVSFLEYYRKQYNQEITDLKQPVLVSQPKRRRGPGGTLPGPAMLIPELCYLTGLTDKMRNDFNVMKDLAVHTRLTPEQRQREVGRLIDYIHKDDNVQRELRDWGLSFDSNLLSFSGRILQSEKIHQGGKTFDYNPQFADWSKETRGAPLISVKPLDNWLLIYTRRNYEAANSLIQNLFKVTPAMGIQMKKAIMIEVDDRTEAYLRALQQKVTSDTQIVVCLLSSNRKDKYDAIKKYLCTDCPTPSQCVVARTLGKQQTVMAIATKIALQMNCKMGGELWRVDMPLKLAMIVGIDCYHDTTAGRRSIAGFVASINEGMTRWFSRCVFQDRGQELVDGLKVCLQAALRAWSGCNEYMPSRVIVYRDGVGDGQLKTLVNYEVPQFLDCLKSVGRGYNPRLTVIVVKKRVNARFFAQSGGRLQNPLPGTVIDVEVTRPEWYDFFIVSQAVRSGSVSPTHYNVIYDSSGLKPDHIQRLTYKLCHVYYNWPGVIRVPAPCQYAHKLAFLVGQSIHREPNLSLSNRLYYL
substance,measurement,value
"BmGtsf1-like, silk moth (Bombyx mori), V5SBP-tagged recombinant (natural protein)",increase in the amount of target cleaved by MIWI piRISC (S.D. = 0.1; p = 0.0027),2.6 fold
